Drawing on paper PMC4200520, this text covers Kd, stoichiometry N and stoichiometry N (pCt per TD4 dimer) for one molecule.

Experiment [1] concerns the target TD4, minimal TACC domain (TD) fragment of XTACC3 (Xenopus). The experiment is described as follows: ITC; TD4 (10–20 μM) in the cell, peptide (400–500 μM) in the syringe; 25 °C; 20 mM HEPES pH 7.5, 150 mM NaCl, 0.25 mM TCEP; one-site model.
Experiment [2] shares this target. The experiment is described as follows: SEC-MALS; TD4 with saturating concentrations of pCt; Superdex 200 10/300 GL, 20 mM Tris/HCl, 150 mM NaCl, 0.25 mM TCEP, pH 8.0.
The target is the same in experiment [3]. The experiment is described as follows: SPR; TD4 (50 μg/ml) amine-coupled to a CM5 chip, peptides pCt or pCt_KD as analytes 10–250 μM; BIAcore X100, 20 °C, HBS (100 mM HEPES, 150 mM NaCl, 0.05% P20, pH 7.4); steady-state fit, single-site model.

B1: pCt, synthetic peptide of XMAP-Ct residues 46-61 (peptide)
peptide: STNIDDLKKRLERIKS
For the molecule B1, the Kd was found to be 11 µM in experiment [1] and 30 µM in experiment [3]. For the same molecule, the stoichiometry N in experiment [1] was 0.5 TD4:pCt. The same molecule had a stoichiometry N (pCt per TD4 dimer) in experiment [2] of 4.

The term Kd denotes a measure of binding affinity in units of concentration. A higher Kd goes with weaker binding. What is called stoichiometry N is a count of units in the complex or per binding partner.
